Here are results for nine molecules from patent publication US8304236B2, “Modified biotin-binding protein” (Japan Tobacco Inc., priority 2008, dated 2012).

Residue numbers refer to the chain shown, from its start. Names and notes keep the numbering of the source. “Also recorded” adds a separate entry of the source.

To fix the notation:
B1: TM2 K26A: TM2 mutant in which lysine at position 26 was replaced with alanine; SEQ ID NO: 4 (protein)
chain: MSDVQSSLTGTWYNELNSKMELTANADGTLTGKYLSKVGDVYVPYPLSGRYNLQPPAGQGVALGWAVSWENSKIHSATTWSGQFFSESSPVILTQWLLSSSTARGDVWESTLVGNDSFTKTAPTEQQIAHAQLHCRAPRLK
modifications: Synthetic TM2 K26A
B2: TM2 R104E: TM2 mutant in which arginine at position 104 was replaced with glutamic acid; SEQ ID NO: 8 (protein)
chain: B1 chain with A26K, R104E
modifications: Synthetic TM2 R104E
B3: TM2 K141E: TM2 mutant in which lysine at position 141 was replaced with glutamic acid; SEQ ID NO: 10 (protein)
chain: B1 chain with A26K, K141E
modifications: Synthetic TM2 K141E
B4: TM2 K73Q: TM2 mutant in which lysine at position 73 was replaced with glutamine; SEQ ID NO: 6 (protein)
chain: B1 chain with A26K, K73Q
modifications: Synthetic TM2 K73Q
B5: TM2 D40N: TM2 mutant in which aspartic acid at position 40 was replaced with asparagine; SEQ ID NO: 20 (protein)
chain: B1 chain with A26K, D40N
modifications: Synthetic TM2 D40N
B6: TM2 K33TK37A: TM2 mutant, lysine 33 replaced with threonine and lysine 37 with alanine; SEQ ID NO: 12 (protein)
chain: B1 chain with A26K, K33T, K37A
modifications: Synthetic TM2 K33TK37A
B7: TM2 K19T: TM2 mutant in which lysine at position 19 is replaced with threonine; SEQ ID NO: 18 (protein)
chain: B1 chain with K19T, A26K
modifications: Synthetic TM2 K19T
B8: TM2 K33TK37AR104E: TM2 mutant, lysine 33 to threonine, lysine 37 to alanine, arginine 104 to glutamic acid; SEQ ID NO: 14 (protein)
chain: B1 chain with A26K, K33T, K37A, R104E
modifications: Synthetic TM2 K33TK37AR104E

The first series relates to human serum protein. Briefly: Non-specific adsorption of low-pI TM2 to human serum protein-immobilized magnetic beads. The format is binding. The following applies: FIG. 1. Here is the method: In this embodiment, non-specific binding to human serum was investigated as non-specific adsorption of low-pI TM2 to serum protein-immobilized magnetic beads. Specifically, in order to investigate the non-specific binding of low-pI TM2, the amount of low-pI TM2 adsorbed to magnetic beads to which human serum protein was covalently bonded was measured. TM2 K26A, TM2 K73Q, TM2 R104E, TM2 K141E, and TM2 R104EK141E, which were highly expressed in Escherichia coli, were used as the low-pI TM2 to be investigated.
Human serum protein and magnetic beads were bound to each other as follows. Magnetic beads having surfaces coated with carboxyl groups (Dynabeads M-270 Carboxylic Acid, Dynal, 210 μL) were washed with 0.01 N sodium hydroxide (210 μL) for 10 minutes and then with ultrapure water (210 μL) for 10 minutes three times. To the washed magnetic beads, 1-ethyl-3-(3-dimethylaminopropyl)carbodiimide hydrochloride (EDC, PIERCE) dissolved in cooled ultrapure water was added into a final concentration of 0.2 M, and the mixture was shaken at room temperature for 30 minutes. Then, the magnetic beads were washed with cooled ultrapure water (210 μL) and then with 50 mM MES buffer (pH 5.0, 210 μL).
To the magnetic beads, 1 mg/mL human serum protein (CHEMICON, 210 μL) dialyzed with 50 mM MES buffer (pH 5.0) was added. The mixture was shaken at room temperature for 30 minutes to covalently bind the human serum protein to the magnetic beads. The magnetic beads were collected with a magnet to remove the supernatant. The unreacted active groups on the beads were eliminated with 50 mM tris buffer (pH 7.0, 210 μL), and then the magnetic beads were blocked with a PBS buffer (420 μL) containing 0.5% BSA and 0.1% Tween 20. The magnetic beads were suspended in a PBS buffer (210 μL) to obtain human serum protein-immobilized magnetic beads.
The magnetic beads (7 μL) and 0.56 μg/mL of each low-pI TM2 (100 μL) were mixed for reaction at room temperature for 1 hour. The magnetic beads were collected with a magnetic, and the supernatant was removed. After washing with 20 mM potassium phosphate buffer (500 μL) containing 500 mM sodium chloride, the magnetic beads were mixed with 20 μL of 2×SDS sample buffer (250 mM Tris-HCl, pH 6.8, 20% 2-mercaptoethanol, 20% SDS, 20% glycerol), followed by heating at 95° C. for 20 minutes to dissociate the low-pI TM2 from the magnetic beads.
This sample was subjected to SDS-PAGE and then western blotting analysis to determine the amount of the low-pI TM2. Anti-tamavidin 2 rabbit antibody and alkaline phosphatase-labeled anti-rabbit IgG goat antibody were used as the primary antibody and the secondary antibody, respectively. The bands were detected with Alkaline Phosphatase Substrate Kit II <VECTOR Black> (VECTRO) and were quantified with Las-3000 (FUJIFILM).
B1: the “decrease of adsorption to human serum protein compared to the wild type TM2” value (shortened to “decrease of adsorption”) is 30% and the “non-specific binding to human serum protein compared to TM2” value (“non-specific binding … compared to TM2” below) was “significantly low”.

Consider B2, for which the “decrease of adsorption” value was found to be 10%.

For the molecule B3, the “decrease of adsorption” value is 40% and the “non-specific binding … compared to TM2” value is given as “significantly low”.

As for B4, the “decrease of adsorption” value was 40% and the “non-specific binding … compared to TM2” value is given as “significantly low”.

The same series, now with this note: summary of Example 1, paragraphs 1-9) and 1-11).
On to B1, for which the “non-specific binding and adsorption, % of that of the wild type TM2” value (“non-specific binding and adsorption, %” below) is “about 60%”.

Take B3: the “non-specific binding and adsorption, %” value is reported as “about 60%”.

Turning to B4, the “non-specific binding and adsorption, %” value was “about 60%”.

Staying with this series, now noted: wild type TM2 = 100.
Consider B1, for which the “Non-specific binding of serum protein (%)” value (“Non-specific binding … (%)” below) came out at 68%.

For B2, the “Non-specific binding … (%)” value came to 90%.

Regarding B3, the “Non-specific binding … (%)” value turned out to be 58%.

On to B4, for which the “Non-specific binding … (%)” value is listed as 55%.

Test system in the next series: not listed separately
Briefly: Heat stability of protein structure (soluble protein after heating, SDS-PAGE). Format: physicochemical. The following applies: heated for 20 minutes. Here is the method:
3-8) Heat Stability of HALU TM2 Protein Structure Each of 0.2 μg/μL TM2 mutant solutions (10 μL (2 μg)) was heated at room temperature, 50, 60, 70, 80, 90, or 99° C. for 20 minutes. Then, the solution was centrifuged at 15000 rpm for 10 minutes, and the soluble protein in the supernatant was suspended in the same volume of 2×SDS sample buffer (250 mM Tris-HCl, pH 6.8, 20% 2-mercaptoethanol, 20% SDS, 20% glycerol). The suspension was heated at 95° C. for 10 minutes, followed by SDS-PAGE. The protein bands were detected by CBB staining A standard curve was prepared using a quantitative marker (LMW ELECTROPHORESIS CALIBRATION KIT; Pharmacia Biotech) with Las-3000 (FUJIFILM) to quantify the protein bands.
Consider streptavidin [reference compound], for which the “Thermal stability (temp. at which 50% of protein was lost)” value is 70 °C.

Test system in the next series: not listed separately
Briefly: Biotin-binding test (Biacore 3000, biotin-LC-BSA immobilized).
Conditions: not given
As for the experimental part: High-purity BSA (Sigma, 2 mg) and NHS-LC-biotin (Pierce, 1 mg) were dissolved in 50 mM sodium borate (pH 8.0, 1 mL) and were incubated at 4° C. for 2 hours. The solution was put into a dialysis tube (MWCO 6-8,000) and was dialyzed with 50 mM sodium carbonate (pH 6.7) at 4° C. overnight. The resulting biotin-LC-BSA conjugate (MW: 67 kDa, 30 μM) was used as a ligand for a Biacore (registered trademark) biosensor.
Biotin-LC-BSA and BSA serving as a negative control were immobilized on CM5 sensor chips by amine coupling method. The amount for immobilization was adjusted to about 200 RU. The chips to which BSA was immobilized were disposed in flow cells 1 and 3, while the chips to which biotin-LC-BSA was immobilized were disposed in flow cells 2 and 4.
Accordingly, seven step measurement (3.125, 6.25, […], 25, 50, 100, and 200 nM) was conducted from the lowest concentration, without recycling steps. The data of BSA as reference was deducted from the data of BSA-LC-biotin. The measurement was performed at 25° C. The resulting sensorgrams were subjected to reaction kinetics analysis using analysis software BIAevaluation ver. 4.1 with a 1:1 binding model to calculate the binding rate constant (ka) and the dissociation rate constant (kd). The dissociation constant (KD) was determined from kd/ka. In the case where no recycling step is employed, the Rmax (maximum amount of binding analyte) decreases at each measurement. Accordingly, in the analysis, the Rmax was calculated by conducting local fitting for each concentration, and only the data of analyte concentrations that were approximated to the 1:1 binding model was employed.
TM2 and HALU TM2 used as analytes were prepared by purification with 2-iminobiotin agarose in accordance with a common method and dialysis with 20MM KPi (pH 7) overnight. The analytes were each adjusted to about 50 μg/mL in 10 mM acetate buffer (pH 5, Biacore).
The immobilization of the ligand and measurement and analysis of specific interaction with the analytes were conducted as in paragraph 2-7-2).
Background: Surface plasmon resonance follows binding to a sensor surface in real time, without labels.
Consider B5, for which the “biotin-binding ability (affinity) compared to the wild type TM2” value is given as “increased; also recorded: enhanced”.

Staying with this series, now noted: dissociation monitored for 60 minutes.
For B5, the “dissociation from biotin-LC-BSA” value is on record as “not dissociated”.

Test system in another series: not listed separately
Kind of series: Isoelectric focusing electrophoresis (pI observed). The format is physicochemical. Conditions: pH 3 to 10 gel. As for the experimental part:
The isoelectric point of each low-pI TM2 was measured by isoelectric focusing electrophoresis using an XCell SureLock Mini-Cell (Invitrogen). In accordance with the instruction, each low-pI TM2 (500 ng) and an IEF sample buffer (pH 3 to 10 (2×), Invitrogen) were mixed and were added to a polyacrylamide gel (pH 3 to 10, IEF Gel, Invitrogen) at a pH ranging from 3 to 10, followed by electrophoresis at a variable voltage of 100 V for 1 hour, 200 V for 1 hour, and 500 V for 45 minutes in this order.
After the electrophoresis, the gel was shaken in a blotting buffer (0.7% acetic acid) for 10 minutes and then was transferred onto a PVDF membrane at 10 V for 1 hour using an XCell ll Blot Module (Invitrogen). The PVDF membrane was subjected to reaction with anti-TM2 rabbit antibody (PCT/W2006/326260) serving as a primary antibody and with alkaline phosphate-labeled anti-rabbit IgG antibody (BIO-RAD) serving as a secondary antibody, followed by detection of bands with Alkaline Phosphatase Substrate Kit II
The isoelectric point of the high-affinity TM2 was measured by isoelectric focusing electrophoresis using an XCell SureLock Mini-Cell (Invitrogen). […] The electric point of TM2 D40N having replacement of the […] amino acid was higher than that of the wild type TM2 also in the isoelectric focusing electrophoresis.
The isoelectric point of HALU TM2 was measured by isoelectric focusing electrophoresis using an XCell SureLock Mini-Cell (Invitrogen). In accordance with the instruction, bands of each HALU TM2 (4 μg) were detected by CBB staining. […] The observed isoelectric point of TM2 D40N was 9.7, and was reduced to 8.9 after introduction of mutation of R104E and was reduced to 7.3 to 7.5 after further introduction of mutation of K141E.
For B1, the pI observed was 7.3 to 7.6.

For B6, the pI observed amounted to 6.2.

Molecule B2 displayed a pI observed of 7.0 to 7.5.

In turn, B5 came in with a pI observed of 9.7.

Take B7: the pI observed was 6.6 to 7.5.

Turning to B8, the pI observed is given as 5.9 to 6.0.

Molecule B3 showed a pI observed of 6.6 to 7.2.

Consider B4, for which the pI observed was 7.7.
